From publication PMC5773378 (Immunity, 2017)
Like-named read-outs stand apart in the source and are kept apart here.

T1: human IL-23 receptor ectodomain (IL-23R, full ECD, residues 1-317) (human, UniProt Q5VWK5-1 24-317)
T1 sequence (looked up): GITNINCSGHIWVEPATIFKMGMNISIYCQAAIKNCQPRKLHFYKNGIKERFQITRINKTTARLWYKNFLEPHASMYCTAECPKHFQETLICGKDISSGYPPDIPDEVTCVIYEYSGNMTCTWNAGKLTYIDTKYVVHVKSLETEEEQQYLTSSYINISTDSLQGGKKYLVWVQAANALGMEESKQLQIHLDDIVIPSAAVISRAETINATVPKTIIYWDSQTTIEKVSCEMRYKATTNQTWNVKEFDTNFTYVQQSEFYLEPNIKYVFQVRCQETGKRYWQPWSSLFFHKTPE

B1: Nanobody 124C4 (single domain VHH camelid antibody against human IL-23) (VHH)
VHH: EVQLVESGGGLVQPGGSLRLSCAASGFTLDDYAIAWFRQAPGKEREGVSGIDSGDGSAYYADSVKGRFTISSDNAKNTVYLQMNSLRPEDTAVYYCARVRTGWGLNAPDYAMDYWGKGTLVTVSS
B2: Nanobody 37D5 (single domain VHH camelid antibody against human IL-23) (VHH)
VHH: EVQLVESGGGLVQPGGSLRLSCAASGFTLDYLAIGWFRQAPGKEREGVSCVSSSGQYTYYADSVKGRFTISRDNAESTVYLQMNSLKPEDTAVYYCATDPECYRVRGYYNGEYDYWGQGTQVTVSS
B3: human interleukin-23 (IL-23), heterodimer of IL-23p19 and IL-12p40 (complex)
chain 1: RAVPGGSSPAWTQCQQLSQKLCTLAWSAHPLVGHMDLREEGDEETTNDVPHIQCGDGCDPQGLRDNSQFCLQRIHQGLIFYEKLLGSDIFTGEPSLLPDSPVGQLHASLLGLSQLLQPEGHHWETQQIPSLSPSQPWQRLLLRFKILRSLQAFVAVAARVFAHGAATLSP
chain 2: IWELKKDVYVVELDWYPDAPGEMVVLTCDTPEEDGITWTLDQSSEVLGSGKTLTIQVKEFGDAGQYTCHKGGEVLSHSLLLLHKKEDGIWSTDILKDQKEPKNKTFLRCEAKNYSGRFTCWWLTTISTDLTFSVKSSRGSSDPQGVTCGAATLSAERVRGDNKEYEYSVECQEDSACPAAEESLPIEVMVDAVHKLKYENYTSSFFIRDIIKPDPPKNLQLKPLKNSRQVEVSWEYPDTWSTPHSYFSLTFCVQVQGKSKREKKDRVFTDKTSATVICRKNASISVRAQDRYYSSSWSEWASVPCS
B4: human IL-12p40, the p40 subunit of IL-23 (natural protein, UniProt P29460 23-328, looked up)
chain: B3 chain 2
B5: preformed human IL-23:IL-23R binary complex (complex)
chain 1: B3 chain 1
chain 2: B3 chain 2
chain 3: T1 sequence (looked up)
B6: human IL-23p19, the helical subunit of IL-23 (natural protein, UniProt Q9NPF7 20-189, looked up)
chain: B3 chain 1
B7: Fab fragment of briakinumab (ABT-874) (Fab, V domains shown)
VH: QVQLVESGGGVVQPGRSLRLSCAASGFTFSSYGMHWVRQAPGKGLEWVAFIRYDGSNKYYADSVKGRFTISRDNSKNTLYLQMNSLRAEDTAVYYCKTHGSHDNWGQGTMVTVSS
VL: QSVLTQPPSVSGAPGQRVTISCSGSRSNIGSNTVKWYQQLPGTAPKLLIYYNDQRPSGVPDRFSGSKSGTSASLAITGLQAEDEADYYCQSYDRYTHPALLFGTGTKVTVL
B8: Nanobody 22E11 (single domain VHH camelid antibody against human IL-23) (VHH)
VHH: EVQLVESGGGLVQAGGSLRLSCAASGRTFSWSAVGWFRQAPGKEREFVAAIRWSGGSPYYADSVKDRFTISRDNAKNTVYLQMNSLRPEDTAVYLCGETSLFPTSRGSHYDTWGQGTQVTVSS
B9: Fab fragment of ustekinumab (Fab, V domains shown)
VH: EVQLVQSGAEVKKPGESLKISCKGSGYSFTTYWLGWVRQMPGKGLDWIGIMSPVDSDIRYSPSFQGQVTMSVDKSITTAYLQWNSLKASDTAMYYCARRRPGQGYFDFWGQGTLVTVSS
VL: DIQMTQSPSSLSASVGDRVTITCRASQGISSWLAWYQQKPEKAPKSLIYAASSLQSGVPSRFSGSGSGTDFTLTISSLQPEDFATYYCQQYNIYPYTFGQGTKLEIK

Assays:
[1] = molecular target: T2, human interleukin-23 (IL-23), heterodimer of IL-23p19 and IL-12p40 (human, UniProt Q9NPF7;P29460); test: cross-linking
[2] = molecular target: T3, human IL-12 receptor subunit beta-1 ectodomain (IL-12Rβ1, full ECD) (human, UniProt P42701-1 24-544); test: ITC
[3] = molecular target: T1, human IL-23 receptor ectodomain …; test: SEC-MALLS
[4] = molecular target: T3, human IL-12 receptor subunit beta-1 …; test: cross-linking
[5] = molecular target: T1, human IL-23 receptor ectodomain …; test: crystal structure
[6] = molecular target: B4; test: crystal structure
[7] = molecular target: T4, human IL-12p40, the p40 subunit of IL-23 (human, UniProt P29460); test: crystal structure
[8] = molecular target: T2, human interleukin-23 (IL-23), …; test: crystal structure
[9] = molecular target: T4, human IL-12p40, the p40 subunit of IL-23; test: crystal structure; remark: listed apart in the source
[10] = molecular target: T2, human interleukin-23 (IL-23), …; test: crystal structure; remark: listed apart in the source

Binder: B1
binding result [1]: binds

Binder: B2
binding result [1]: binds

Binder: B3
Kd [2]: 2 µM
stoichiometry N [3]: 1

Binder: B4
binding result [4]: binds

Binder: B5
Kd [2]: 0.025 µM

Binder: B6
binding result [5]: binds
binding result [6]: binds

Binder: B7
binding result [7]: binds
binding result [8]: binds

Binder: B8
binding result [9]: binds
binding result [10]: binds

Binder: B9
binding result [1]: binds
